From US7208581 (BURNHAM INSTITUTE FOR MEDICAL RESEARCH, dated 2007)

T1: hTRAF 2 (complete open reading frame, in vitro translated from pcDNA3-HA-TRAF2) (human, UniProt Q12933 2-501, 35S-methionine labelled)
T1 construct: mature; also called human TRAF 2; not shown: HA tag of the pcDNA3-HA vector
T1 sequence (looked up): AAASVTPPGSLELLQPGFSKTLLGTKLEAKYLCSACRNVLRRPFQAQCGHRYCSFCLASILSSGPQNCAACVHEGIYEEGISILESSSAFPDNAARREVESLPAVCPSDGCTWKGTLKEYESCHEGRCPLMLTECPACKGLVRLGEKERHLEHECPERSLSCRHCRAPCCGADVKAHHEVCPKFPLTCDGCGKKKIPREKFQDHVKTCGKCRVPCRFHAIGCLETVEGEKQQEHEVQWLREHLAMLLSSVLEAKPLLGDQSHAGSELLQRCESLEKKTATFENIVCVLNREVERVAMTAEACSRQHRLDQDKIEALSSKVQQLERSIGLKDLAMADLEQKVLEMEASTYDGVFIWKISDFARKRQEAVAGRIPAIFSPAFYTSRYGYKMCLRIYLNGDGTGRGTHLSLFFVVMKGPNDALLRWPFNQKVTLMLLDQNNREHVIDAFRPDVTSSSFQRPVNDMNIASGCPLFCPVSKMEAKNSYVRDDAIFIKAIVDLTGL

T2: hTRAF4 (complete open reading frame, in vitro translated from pcDNA3-HA-TRAF4) (human, UniProt Q9BUZ4 1-470, 35S-methionine labelled)
T2 construct: mature; also called human TRAF 4; not shown: HA tag of the pcDNA3-HA vector
T2 sequence (looked up): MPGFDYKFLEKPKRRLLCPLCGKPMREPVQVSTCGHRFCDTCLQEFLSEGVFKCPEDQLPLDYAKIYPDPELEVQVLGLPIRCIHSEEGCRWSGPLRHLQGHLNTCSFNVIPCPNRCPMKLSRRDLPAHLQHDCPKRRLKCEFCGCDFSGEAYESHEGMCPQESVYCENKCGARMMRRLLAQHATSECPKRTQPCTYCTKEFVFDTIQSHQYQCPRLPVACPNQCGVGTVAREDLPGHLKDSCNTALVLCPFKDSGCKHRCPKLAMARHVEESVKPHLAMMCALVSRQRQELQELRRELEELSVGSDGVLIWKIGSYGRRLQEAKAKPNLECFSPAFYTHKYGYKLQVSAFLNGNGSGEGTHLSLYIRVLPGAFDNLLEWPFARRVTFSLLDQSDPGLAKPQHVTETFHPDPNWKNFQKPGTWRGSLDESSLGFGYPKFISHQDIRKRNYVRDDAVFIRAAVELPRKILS

T3: full-length I-TRAF (in vitro translated) (UniProt Q92844 1-425, limits assumed, 35S-methionine labelled)
T3 construct: mature
T3 sequence (looked up): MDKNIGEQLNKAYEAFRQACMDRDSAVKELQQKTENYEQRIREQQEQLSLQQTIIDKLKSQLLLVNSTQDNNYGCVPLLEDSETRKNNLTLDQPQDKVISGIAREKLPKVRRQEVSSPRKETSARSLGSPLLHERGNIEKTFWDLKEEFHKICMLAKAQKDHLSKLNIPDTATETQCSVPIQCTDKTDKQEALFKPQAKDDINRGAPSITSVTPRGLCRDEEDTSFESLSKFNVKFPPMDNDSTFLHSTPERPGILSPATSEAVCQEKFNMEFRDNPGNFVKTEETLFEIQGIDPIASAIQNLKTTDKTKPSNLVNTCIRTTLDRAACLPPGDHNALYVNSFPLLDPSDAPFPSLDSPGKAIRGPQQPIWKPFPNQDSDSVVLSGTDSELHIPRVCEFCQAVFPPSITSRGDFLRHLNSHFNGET

B1: GST-LTβR(ct) (receptor, UniProt P36941 249-435, looked up)
chain: KSHPSLCRKLGSLLKRRPQGEGPNPVAGSWEPPKAHPYFPDLVQPLLPISGDVSPVSTGLPAAPVLEAGVPQQQSPLDLTREPQLEPGEQSQVAHGTNGIHVTGGSMTITGNIYIYNGPVLGGPPGPGDLPATPEPPYPIPEEGDPGPPGLSTPHQEDGKAWHLAETEHCGATPSNRGPRNQFITHD
notes: domain: cytosolic domain; also called lymphotoxin-β receptor; not shown: glutathione S-transferase tag of plasmid pGEX-LTβR(ct)
B2: TRAF7 (282-435), not GST-fused (pcDNA3-myc-TRAF7 (282-435)) (other)
chain: FTSELVPSYDSATFVLENFSTLRQRADPVYSPPLQVSGLCWRLKVYPDGNGVVRGYYLSVFLELSAGLPETSKYEYRVEMVHQSCNDPTKNIIREFASDFEVGECWGYNRFFRLDLLANEGYLNPQNDTVILRFQVRSPTFFQKSRDQHWYIT
notes: transfected in the reporter assay; also called in vitro translated TRAF7 (282-435); TRAF domain of TRAF7; not shown: myc tag of the pcDNA3-myc vector
B3: GST-SPOP (1-180) (other)
chain: MSRVPSPPPPAEMSSGPVAESWCYTQIKVVKFSYMWTINNFSFCREEMGEVIKSSTFSSGANDKLKWCLRVNPKGLDEESKDYLSLYLLLVSCPKSEVRAKFKFSILNAKGEETKAMESQRAYRFVQGKDWGFKKFIRRDFLLDEANGLLPDDKLTLFCEVSVVQDSVNISGQNTMNMVK
notes: Bacterial GST fusion purified on glutathione-Sepharose. cDNA amplified from Jurkat cells; also called GST-SPOP fusion protein; GST-fused TPBD of SPOP; not shown: glutathione S-transferase tag encoded by the pGEX4T vector (Pharmacia)
B4: SPOP (1-180), not GST-fused (pcDNA3-myc-SPOP (1-180)) (other)
chain: B3 chain
notes: also called in vitro translated SPOP (1-180); TPBD of SPOP; not shown: myc tag of the pcDNA3-myc vector
B5: GST-fusion protein containing the cytosolic domain of HVEM (receptor, UniProt Q92956 224-283, looked up)
chain: CVKRRKPRGDVVKVIVSVQRKRQEAEGEATVIEALQAPPDVTTVAVEETIPSFTGRSPNH
notes: domain: cytosolic domain; Only named in the 293T lysate experiment; not shown: glutathione S-transferase tag
B6: GST-TNF-R2(ct) (receptor, UniProt P20333 288-461, looked up)
chain: KKKPLCLQREAKVPHLPADKARGTQGPEQQHLLITAPSSSSSSLESSASALDRRAPTRNQPQAPGVEASGAGEARASTGSSDSSPGGHGTQVNVTCIVNVCSSSDHSSQCSSQASSTMGDTDSSPSESPKDEQVPFSKEECAFRSQLETPETLLGSTEEKPLPLGVPDAGMKPS
notes: domain: cytosolic domain; Plasmid provided by Dr. C; Ware; also called TNF-receptor 2; not shown: glutathione S-transferase tag of plasmid pGEX-TNF-R2(ct)
B7: GST-CD40(ct) (receptor, UniProt P25942 216-277, looked up)
chain: KKVAKKPTNKAPHPKQEPQEINFPDDLPGSNTAAPVQETLHGCQPVTQEDGKESRISVQERQ
notes: domain: cytosolic domain; not shown: glutathione S-transferase tag of plasmid pGEX-CD40(ct)
B8: GST-DR4(ct) (receptor, UniProt O00220 263-468, looked up)
chain: CIGSGCGGDPKCMDRVCFWRLGLLRGPGAEDNAHNEILSNADSLSTFVSEQQMESQEPADLTGVTVQSPGEAQCLLGPAEAEGSQRRRLLVPANGADPTETLMLFFDKFANIVPFDSWDQLMRQLDLTKNEIDVVRAGTAGPGDALYAMLMKWVNKTGRNASIHTLLDALERMEERHAREKIQDLLVDSGKFIYLEDGTGSAVSLE
notes: domain: cytosolic domain; not shown: glutathione S-transferase tag of plasmid pGEX-DR4(ct)
B9: GST-Fas(ct) (receptor, UniProt P25445 191-335, looked up)
chain: KRKEVQKTCRKHRKENQGSHESPTLNPETVAINLSDVDLSKYITTIAGVMTLSQVKGFVRKNGVNEAKIDEIKNDNVQDTAEQKVQLLRNWHQLHGKKEAYDTLIKDLKKANLCTLAEKIQTIILKDITSDSENSNFRNEIQSLV
notes: domain: cytosolic domain; not shown: glutathione S-transferase tag of plasmid pGEX-Fas(ct)

Legend:
GST-HAUSP (1-213) = molecular target: T4, GST-HAUSP (1-213) (human, UniProt Q93009 1-213); test: GST pull-down, 35S in vitro translated protein, SDS-PAGE and fluorography
T4 construct: Bacterial GST fusion purified on glutathione-Sepharose. cDNA amplified from Jurkat cells; also called GST-fused TPBD of HAUSP; HAUSP TPBD; not shown: glutathione S-transferase tag encoded by the pGEX4T vector (Pharmacia)

GST-SPOP (1-180) = molecular target: B3; test: as above
GST-DR4(ct) = molecular target: B8; test: as above
[1] = molecular target: T1, hTRAF 2 (complete open reading frame, …); test: as above
[2] = molecular target: T2, hTRAF4 (complete open reading frame, in …); test: as above
[3] = molecular target: T5, hTRAF5 (complete open reading frame, in vitro translated from pcDNA3-Flag-TRAF5) (human, UniProt O00463 1-557, 35S-methionine labelled); test: as above
T5 construct: mature; also called human TRAF 5; not shown: Flag tag of the pcDNA3-Flag vector

[4] = molecular target: T3, full-length I-TRAF (in vitro translated); test: as above
[5] = molecular target: B4; test: as above
GST-LTβR(ct) = molecular target: B1; test: as above
[6] = molecular target: B2; test: GST pull-down from 293T cell lysate, anti-Myc immunoblot
Description: Bound TRAF proteins were detected by SDS-PAGE and fluorography.
Equal volumes of the in vitro translation mixtures (10 μl) were incubated with GST-fusion proteins containing the cytosolic domains of different members of the TNF-R family (1 μg)(FAS, TNF-R2, CD40, LTβR, NGFRp75, and DR4) immobilized on glutathione-Sepharose. […] Control GST and other GST control proteins were included in all assays After washing, bound proteins were analyzed by SDS-PAGE followed by fluorography for binding assays using in vitro translated proteins. […] Bound proteins were then detected by standard chemiluminescence assay (ECL; Amersham; Piscataway N.J.).

T4 sequence (Q93009 1-213): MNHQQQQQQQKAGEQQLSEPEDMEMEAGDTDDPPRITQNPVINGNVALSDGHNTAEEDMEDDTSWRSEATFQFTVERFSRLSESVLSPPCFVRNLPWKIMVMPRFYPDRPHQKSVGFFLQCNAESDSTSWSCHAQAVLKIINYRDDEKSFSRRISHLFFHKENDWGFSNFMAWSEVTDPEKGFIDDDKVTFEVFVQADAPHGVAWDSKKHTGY
T5 sequence (O00463 whole entry): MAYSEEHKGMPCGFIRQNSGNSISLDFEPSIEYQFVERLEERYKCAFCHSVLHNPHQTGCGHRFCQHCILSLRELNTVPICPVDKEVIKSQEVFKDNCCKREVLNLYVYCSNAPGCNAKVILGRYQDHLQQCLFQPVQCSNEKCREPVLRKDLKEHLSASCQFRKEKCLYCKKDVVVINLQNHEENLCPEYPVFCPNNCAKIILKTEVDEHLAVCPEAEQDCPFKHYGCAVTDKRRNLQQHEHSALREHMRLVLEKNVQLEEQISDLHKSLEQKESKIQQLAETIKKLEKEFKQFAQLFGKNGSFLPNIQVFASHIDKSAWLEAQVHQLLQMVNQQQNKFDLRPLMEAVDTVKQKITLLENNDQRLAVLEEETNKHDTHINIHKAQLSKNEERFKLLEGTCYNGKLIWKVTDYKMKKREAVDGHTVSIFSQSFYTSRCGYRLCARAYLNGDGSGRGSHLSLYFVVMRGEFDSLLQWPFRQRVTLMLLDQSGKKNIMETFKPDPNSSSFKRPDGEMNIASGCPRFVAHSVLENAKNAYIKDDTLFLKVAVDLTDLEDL

| Binder | binding result (GST-HAUSP (1-213)) | binding result (GST-SPOP (1-180)) | other results |
| --- | --- | --- | --- |
| B1 | no binding | – | – |
| B2 | no binding | no binding | – |
| B3 | – | – | binding result (GST-DR4(ct)): no binding; binding result [1]: no binding; binding result [2]: no binding; binding result [3]: no binding; binding result [4]: no binding; binding result [5]: no binding; binding result (GST-LTβR(ct)): no binding |
| B4 | no binding | – | – |
| B5 | – | – | binding result [6]: no binding |
| B6 | no binding | – | – |
| B7 | no binding | no binding | – |
| B8 | no binding | – | – |
| B9 | no binding | no binding | – |
